Assay results: paper PMC3444823

Assays:
[1] = target: truncated HIV-1 gp120MS (residues 83-492, intact variable loops) (HIV-1 (clade A isolate)); experiment: SEC
[2] = target: truncated HIV-1 gp120SC (residues 83-492, intact variable loops) (HIV-1 (clade B isolate)); experiment: SEC
[3] = target: single-chain fusion protein of CD4i antibody domain m36.4 with gp120MS (human | HIV-1 (clade A isolate)); experiment: SPR
[4] = target: single-chain fusion protein of CD4i antibody domain m36.4 with gp120SC (human | HIV-1 (clade B isolate)); experiment: SPR
[5] = target: single-chain fusion protein of CD4i antibody domain m36.4 with gp140SC (human | HIV-1 (clade B isolate)); experiment: SPR
[6] = target: single-chain fusion protein of CD4i scFv m9 with gp120SC (HIV-1 (clade B isolate)); experiment: SPR
[7] = target: stabilized gp120SC with T257S+S375W mutations (HIV-1 (clade B isolate)); experiment: SPR
[8] = target: truncated HIV-1 gp120MS (residues 83-492, intact variable loops) (HIV-1 (clade A isolate)); experiment: SPR
[9] = target: truncated HIV-1 gp120SC (residues 83-492, intact variable loops) (HIV-1 (clade B isolate)); experiment: SPR

truncated HIV-1 gp120MS (residues 83-492, intact variable loops) (domain or fragment)
stoichiometry N [1]: 2

truncated HIV-1 gp120SC (residues 83-492, intact variable loops) (domain or fragment)
stoichiometry N [2]: 2

two-domain human soluble CD4 (domain or fragment)
Kd [3]: 0.15 nM
Kd [4]: 0.73 nM
Kd [5]: 1.9 nM
Kd [6]: 1.8 nM
Kd [7]: 59 nM
Kd [8]: 0.21 nM
Kd [9]: 104 nM
